Reference: publication PMC3762362, “Three-color single molecule imaging shows WASP detachment from Arp2/3 complex triggers actin filament branch formation” (eLife, 2013)

target: Rabbit muscle actin (monomeric) (rabbit, UniProt P68135 1-377); assay: fluorescence polarisation; fluorescence anisotropy competition: 20 nM VCA-AF488 with rabbit muscle actin (150 nM in the legend, 200 nM in the methods) and increasing Cy3-diVCA construct; fit to a competition binding isotherm; 10 mM imidazole pH 7.0, 50 mM KCl, 1 mM EGTA, 1 mM MgCl2, 0.5 mM DTT, 0.1 mM ATP; room temperature; settings: both partners purified

Binder | Kd
Cy3-diVCA wild-type (N-WASP VCA covalently dimerized with a Cy3 bis-maleimide) (domain or fragment, Cy3 bis-maleimide (BMCy3) crosslinks the single Cys of the N-terminal extension of the two chains, extension appended at the N-terminus; its Cys reacts with the Cy3 bis-maleimide; human N-WASP VCA, residues 432-505 (second WH2 motif (V) through the C-terminus); Covalent dimer; also called diVCA w.t; wild-type diVCA; source: E. coli BL21(DE3) T1R, purified (DEAE, Glutathione Sepharose, TEV cleavage, SOURCE 15Q, Superdex 200); not shown: GST, N-terminal, cleaved) CGGSGGSGGSGGSSGRDALLDQIRQGIQLKSVADGQESTPPTPAPTSGIVGALMEVMQKRSKAIHSSDEDEDEDDEEDFEDDDEWED | 340 nM
Cy3-diVCA-C* (I467A) (domain or fragment, Cy3 bis-maleimide (BMCy3) crosslinks the single Cys of the N-terminal extension of the two chains, extension appended at the N-terminus; its Cys reacts with the Cy3 bis-maleimide; human N-WASP VCA, residues 432-505, mutated in the C-region; Covalent dimer; same design as m1; also called C* mutant; source: E. coli BL21(DE3) T1R, purified (DEAE, Glutathione Sepharose, TEV cleavage, SOURCE 15Q, Superdex 200); not shown: GST, N-terminal, cleaved) CGGSGGSGGSGGSSGRDALLDQIRQGIQLKSVADGQESTPPTPAPTSGAVGALMEVMQKRSKAIHSSDEDEDEDDEEDFEDDDEWED | 260 nM
Cy3-diVCA-V* (D435S/A436D) (domain or fragment, Cy3 bis-maleimide (BMCy3) crosslinks the single Cys of the N-terminal extension of the two chains, extension appended at the N-terminus; its Cys reacts with the Cy3 bis-maleimide; human N-WASP VCA, residues 432-505, mutated in the V-region; Covalent dimer; same design as m1; also called V* mutant; source: E. coli BL21(DE3) T1R, purified (DEAE, Glutathione Sepharose, TEV cleavage, SOURCE 15Q, Superdex 200); not shown: GST, N-terminal, cleaved) CGGSGGSGGSGGSSGRSDLLDQIRQGIQLKSVADGQESTPPTPAPTSGIVGALMEVMQKRSKAIHSSDEDEDEDDEEDFEDDDEWED | 660 nM
Cy3-diVCA-A* (Δ486–488) (domain or fragment, Cy3 bis-maleimide (BMCy3) crosslinks the single Cys of the N-terminal extension of the two chains, extension appended at the N-terminus; its Cys reacts with the Cy3 bis-maleimide; human N-WASP VCA, residues 432-505, three-residue deletion in the A-region; Covalent dimer; same design as m1; also called A* mutant; source: E. coli BL21(DE3) T1R, purified (DEAE, Glutathione Sepharose, TEV cleavage, SOURCE 15Q, Superdex 200); not shown: GST, N-terminal, cleaved) CGGSGGSGGSGGSSGRDALLDQIRQGIQLKSVADGQESTPPTPAPTSGIVGALMEVMQKRSKAIHSSEDEDDEEDFEDDDEWED | 250 nM
